Measurements as given in patent US20150258217A1, “Methods of Synthesizing and Using Peg-Like Fluorochromes” (THE GENERAL HOSPITAL CORPORATION, priority 2012, published 2015).

Columns and labels:
[1] = Quantum yield determination; assay type: physicochemical
Experimental: Quantum yields were determined as described in Demas et al., “Measurement of photoluminescence quantum yields. Review”, Journal of Physical Chemistry 75, 991-1024 (1971), and Shao et al., “Facile Synthesis of Monofunctional Pentamethine Carbocyanine Fluorophores. Dyes and pigments: an international journal 90, 119-122 (2011). For IR-783 a reference quantum yield of 0.043 was used (see Li et al., “Synthesis and characterization of glucosamine-bound near-infrared probes for optical imaging”, Organic letters 8, 3623-3626, 2006); for fluorescein a reference quantum yield was […] (see Sjoback et al., “Absorption and florescence properties of fluorescein”, Spectrohimica Acta Part A 51, L7-L21, 1995). For Cy3 a reference quantum yield of 0.31 was used (Luminprobe Inc). For PN(783)'s, excitation was at 730 nm and emission spectra were recorded from 765 nm to 870 nm in PBS and maximum emission used. For PN(545)'s, excitation was at 515 nm and emission spectra were recorded from 538 nm to 700 nm in PBS and maximum emission used. For PN(497)'s, excitation was at 450 nm and emission spectra were recorded from 475 nm to 620 nm in PBS and maximum emission used. Absorbance of each probe was adjusted less than 0.1. Measurements were made in triplicate and are expressed as mean±SD.

[2] = PN and peptide size (volume, diameter) by FPLC gel filtration (Superdex 200, globular protein standards); assay type: physicochemical; conditions: Table 5; globular protein equivalent molecular weight
Experimental: DOTA-Lys-Cys(IR783)-NH2 is then dissolved in DMSO, with 2 equivalents of an NHS ester of PEG and 6 equivalents of DIPEA. The reaction was at room temperature for 5 days. Product was purified by reverse phase HPLC separation. Product molecular weight was by matrix-assisted laser desorption ionization time-of-flight mass spectrometry (MALDI-TOF MS), with product molecular volume by size exclusion FPLC using globular protein standards (GE Healthcare life science AKTApurifier 10).
The mass spec of low molecular weights (MW) were obtained by MS-ESI Micromass (Waters) and high MW molecules were determined through MALDI-TOF analyses at the Tufts University Core Facility. RP-HPLC (Varian ProStar detector and delivery modules) employed an eluant A (0.1% TFA/water) and eluant B (0.1% TFA and 9.9% water in acetonitrile). Probe size (volume) was determined by FPLC using an ÄKTA Purifier 10 and Superdex™ 200 10/300GL column (GE Healthcare) with a running buffer of 0.05 M sodium phosphate, 0.15 M NaCl (0.1% Tween, pH 7.2) and flow rate of 0.8 ml/min. Standards (GE Healthcare) were Ferritin, Ribonuclease A, Carbonic Anhydrase, and Conalbumin and Blue Dextran 2000. To obtain probe volumes, Mr (apparent molecular weight based on size exclusion retention) was plotted versus Kav. Kav=(Ve−Vo)/(Vt−Vo), Vt=total volume, Ve=elution volume, Vo=void volume.
The column was calibrated with globular protein standards, and globular protein equivalent molecular weights (in kDa) were obtained (Table 5, column 5). These were converted to PN diameters in nm using the relationship: Radius in nm=[…] where M is the molecular weight of a globular protein expressed in daltons (see Erickson, “Size and Shape of Protein Molecules at the Nanometer Level Determined by Sedimentation, Gel Filtration, and Electron Microscopy”, Biological Procedures Online 2009, 11(1): 32-50). PN's diameters ranged from 3.0 to 11.8 nm (see FIG. 23a). Using PEG's of 5 kDa and 30 kDa, selected for their low polydispersity, PN's were synthesized using IR-783, Cy3 and Fluorescein (see FIG. 22a) and their sizes determined (see FIGS. 23a, 23b, 23c). With the 5 kDa PEG and these three fluorochromes (see the magenta chromatograms in FIGS. 22a, 23b and 23c) PN diameters were 4.3 nm. With the 30 kDa PEG and these three fluorochromes (blue chromatograms, 23a, 23b, 23c), PN diameters were now 10.0 nm. For reference, the diameter of a 67 kDa albumin determined by this method was 5.4 nm.

[3] = test system: HT-29, a human colon carcinoma cell line; experiment: PN and peptide binding to cells (non-specific binding, FACS); assay type: cell-based; conditions: HT-29 cells, 30 min at 37° C., FACS
Experimental: HT-29, a human colon carcinoma cell line, was from the American Tissue Culture Collection and maintained according to their instructions. Cells were seeded on 24-well plates at 5×10^5 cells/well in culture medium (RPMI 1640 with 10% FBS) the day before the assay. The day of assay, medium was removed, wells rinsed twice with DPBS (+Ca, +Mg), and 100 μl of 2% FBS/DPBS (+Ca, +Mg) added. 100 μL of Nanoprobes (2 μM) in DPBS (+Ca, +Mg) was added to cells and incubated for 30 min at 37° C. (Probe concentrations were determined spectrophotometrically (783 nm, extinction coefficient of 314 471 cm^−1 M^−1 for IR-783; 497 nm, extinction coefficient of 68 000 cm^−1 M^−1 for Fluorescein; 545 nm, extinction coefficient of 150 000 cm^−1 M^−1 for Cy3). Cells were detached by Trypsin/EDTA and assayed for fluorescence by FACS (BD 7 laser LSR2 for nanoprobes with IR-783; BD 3 laser LSR2 for nanoprobes with Fluorescein or Cy3).

[4] = test system: mCherry/HT29 tumor sections; experiment: Confocal microscopy of tumor sections (tumor retention phase); assay type: in vivo, mouse; conditions: 48 hours post IV injection
Experimental: The mCherry-HT-29 tumor sample was collected at 48 hours post IV injection with PN(497)10.0, and then cryosectioned with thickness of 5 μm. The tumor section was fixed with 4% PFA, mounted with 90% glycerol/10% PBS (at pH 8.5 for best fluorescein fluorescence), and stained with DAPI. Confocal imaging was performed on a Zeiss LSM510 laser scanning confocal microscope (Zeiss Axiophot, Carl Zeiss, Jena, Germany). A 405 nm diode Laser, 488 nm argon laser, and 561 nm diode laser were used for the excitation of DAPI, fluorescein, and mCherry, respectively. A primary dichroic HFT 405/488/561 was used in combination with an LP420 emission filter for DAPI, BP505-530 for fluorescein, and LP575 for mCherry. Images were analyzed with ImageJ64.

[5] = literature/vendor reference value; cited from earlier work
[6] = Probe volume determination by FPLC (Superdex 75, globular protein standards); assay type: physicochemical
Experimental: Size (volume) was determined by FPLC using an ÄKTA Purifier 10 and Superdex™ 75 10/300 GL column (GE Healthcare Lifesciences) with a running buffer of 0.05 M sodium phosphate, 0.15 M NaCl (0.1% Tween, pH 7.2) and flow rate of 0.5 ml/min. The protein standards (Gel Filtration Calibration Kit LMW, code no. 28-4038-41, GE Healthcare) (0.3 mg/ml, mixture of Aprotinin, Ribonuclease A, Ovalbumin, and Conalbumin) and Blue Dextran 2000 were used. To obtain volumes, Mr (apparent molecular weight based on size exclusion retention) was plotted versus Kav. Kav=(Ve−Vo)/[…], Vt=total volume, Ve=elution volume, Vo=void volume.

[7] = test system: GFP expressing BT-20 breast carcinoma xenograft; experiment: Tumor surface fluorescence after peritumoral (DMR) or IV injection; assay type: in vivo, mouse; conditions: BT-20 tumors, 24 hours post injection
Experimental: Day 1, BT-20 cells were planted into 24-well plate at 750,000 cells/well in culture medium (EMEM with 10% FBS). Day 2, the old culture medium was replaced with new culture medium containing lenti-virus (1×10^8 particles/mL) and protamine sulphate (American Pharmaceutical Partners, Los Angelus, Calif.; 10 mg/mL; 1:500 of total volume of medium). Day 3, after 16 hours of transfection, medium was changed to the culture medium (EMEM with 10% FBS). 8 hours later, green cells could be seen via fluorescence microscope.
All animal experiments were approved by the Institutional Review Committee of Massachusetts General Hospital. Female nude mice (25-30 g; 6-8 weeks old; nu/nu; Cox 7, Massachusetts General Hospital, Boston, Mass.) were anesthetized with isoflurane/O2. Tumor cell implantation was performed both sides around the shoulder. 200 μl of cell suspension containing 10^6 cells in Matrigel (BD) was injected subcutaneously. Tumor cells were inoculated for 7 to 10 days.
The diffusion and molecular retention required of the DMR technique with a tumor bearing model were investigated. We peritumorally injected the RGD probe into an animal bearing two GFP expressing BT-20 breast carcinomas and monitored tumor GFP fluorescence and probe fluorescence as a function of time after injection. The non-integrin binding RAD probe was injected into a second animal also bearing two tumors. Overlaying purple probe fluorescence over green GFP yields white. […] Tumor surface fluorescence from both probes was quantified by the use of solution standards.
In FIG. 8a), two animals bearing two tumors were PT injected with the RGD probe or RAD probe as indicated and surface fluorescence images were obtained. […] In FIG. 8b), quantitation of tumor surface fluorescence after injections of the RGD or RAD probes as above. Surface fluorescence was quantified through the use of standard solutions.
To compare the DMR and intravenous (IV) methods, surface fluorescence images of tumor GFP and RGD probe fluorescence were obtained with skin removed, and overlays from the two signals obtained. With both DMR and IV administration, probe fluorescence extended beyond tumor GFP margins to a stromal area beyond the tumor. However, tumor fluorescence was far higher with DMR than IV injection, even though dose was far lower (50 pmoles/mouse by DMR versus 2000 pmoles/mouse by IV).
In FIG. 9a), skin covering GFP-BT-20 tumor was removed. Shown are visible GFP fluorescence, probe (CyAL5.5) fluorescence, and the overlay of GFP and probe fluorescence plus an X-ray image. Green GFP plus purple CyAL5.5 fluorescence yielded a white overlaid image. In FIG. 9b), with DMR or IV, probe fluorescence included a stromal zone of integrin binding surrounding the tumor was seen. […]

[8] = Diffusion and elimination after intramuscular administration (surface fluorescence); assay type: in vivo; conditions: nude mouse, front extremity, 24 hours post injection
Experimental: The diffusion and elimination of the non-integrin binding RAD probe after an intramuscular administration in the front extremity of a nude mouse was visualized. Using surface fluorescence, the probe rapidly diffused through the extremity and shoulder of the mouse, with vascular uptake and renal elimination evident from bladder fluorescence at 4 hours post injection.

Substance: (DOTA)Lys(PEG30K)-Cys(Cy3) [PN(545)10.0]
- Quant. Yield ([1]; Table 5, in PBS): 0.61
- Volume FPLC [2]: 435 kDa
- Cell NSB (percent of cells with fluorescence higher than unstained cell) [3]: 15%
- cellular localisation in tumor sections [4]: seen in mCherry/HT29 cells

Substance: Cy3
- reference quantum yield [5]: 0.31

Substance: DOTA-Lys(CyAL5.5)-Lys(5 kDa PEG)- βAla -Lys(sPEG-RAD) [Compound 7b]
- Equiv. Vol. ([6]; FPLC, globular protein equivalent volume): 25 kDa
- Molecular Volume ([6]; Table 3A, tetrapeptides): 20 kDa
- Molecular Volume ([6]; Table 4, DMR probes): 20-30 kDa
- Quantum Yield ([1]; Table 3A, CyAL5.5 tetrapeptides): 0.20
- Quantum Yield ([1]; Table 4, DMR probes): 0.20
- tumor retention of probe fluorescence after peritumoral injection [7]: cleared by 24 hours post injection
- clearance from intramuscular injection site [8]: detectable fluorescence was not found
